Tests used:
AncSZ = assay: phosphorylation enrichment, bacterial display (enrichment ratio); higher = better substrate or ligand; peptides without Tyr show the background
EPHB1 = EPHB1 (UniProt P54762); assay: as above
EPHB2 = EPHB2 (UniProt P29323); assay: as above
FGFR1 = FGFR1 (UniProt P11362); assay: as above
FGFR3 = FGFR3 (UniProt P22607); assay: as above
Fer (mouse) = assay: as above
Fes = Fes (UniProt P07332); assay: as above
Fyn = Fyn (UniProt P06241); assay: as above
Hck = Hck (UniProt P08631); assay: as above
Jak2 = Jak2 (UniProt O60674); assay: as above
Sequence of Jak2 (O60674 whole entry, looked up): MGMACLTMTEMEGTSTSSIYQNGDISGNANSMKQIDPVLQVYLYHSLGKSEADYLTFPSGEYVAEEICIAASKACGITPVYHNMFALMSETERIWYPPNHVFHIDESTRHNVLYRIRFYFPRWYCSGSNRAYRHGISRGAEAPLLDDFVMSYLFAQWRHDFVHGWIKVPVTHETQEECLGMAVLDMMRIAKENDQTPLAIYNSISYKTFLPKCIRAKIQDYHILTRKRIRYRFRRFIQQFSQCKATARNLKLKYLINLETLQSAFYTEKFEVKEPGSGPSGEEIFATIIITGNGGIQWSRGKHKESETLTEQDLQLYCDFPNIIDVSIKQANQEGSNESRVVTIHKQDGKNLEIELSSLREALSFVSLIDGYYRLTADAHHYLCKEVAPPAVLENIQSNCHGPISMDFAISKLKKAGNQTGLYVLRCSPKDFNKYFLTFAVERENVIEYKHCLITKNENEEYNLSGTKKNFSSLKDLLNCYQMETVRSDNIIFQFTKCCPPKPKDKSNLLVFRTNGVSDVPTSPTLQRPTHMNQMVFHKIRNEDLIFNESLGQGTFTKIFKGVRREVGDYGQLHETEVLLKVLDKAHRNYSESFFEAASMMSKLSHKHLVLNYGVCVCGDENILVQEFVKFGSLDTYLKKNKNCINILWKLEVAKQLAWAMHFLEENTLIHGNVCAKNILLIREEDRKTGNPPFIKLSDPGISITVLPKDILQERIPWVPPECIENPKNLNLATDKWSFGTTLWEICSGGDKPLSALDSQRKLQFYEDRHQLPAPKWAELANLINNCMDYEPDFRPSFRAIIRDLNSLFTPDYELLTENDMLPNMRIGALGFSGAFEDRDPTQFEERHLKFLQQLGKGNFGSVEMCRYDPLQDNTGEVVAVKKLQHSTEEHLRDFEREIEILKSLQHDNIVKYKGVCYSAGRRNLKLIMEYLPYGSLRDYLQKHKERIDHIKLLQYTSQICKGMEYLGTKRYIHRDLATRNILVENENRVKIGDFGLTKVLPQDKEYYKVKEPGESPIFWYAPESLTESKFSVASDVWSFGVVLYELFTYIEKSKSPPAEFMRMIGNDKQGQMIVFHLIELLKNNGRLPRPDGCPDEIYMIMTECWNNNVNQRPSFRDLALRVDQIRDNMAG

MERTK = MERTK (UniProt Q12866); assay: as above
Sequence of MERTK (Q12866 whole entry, looked up): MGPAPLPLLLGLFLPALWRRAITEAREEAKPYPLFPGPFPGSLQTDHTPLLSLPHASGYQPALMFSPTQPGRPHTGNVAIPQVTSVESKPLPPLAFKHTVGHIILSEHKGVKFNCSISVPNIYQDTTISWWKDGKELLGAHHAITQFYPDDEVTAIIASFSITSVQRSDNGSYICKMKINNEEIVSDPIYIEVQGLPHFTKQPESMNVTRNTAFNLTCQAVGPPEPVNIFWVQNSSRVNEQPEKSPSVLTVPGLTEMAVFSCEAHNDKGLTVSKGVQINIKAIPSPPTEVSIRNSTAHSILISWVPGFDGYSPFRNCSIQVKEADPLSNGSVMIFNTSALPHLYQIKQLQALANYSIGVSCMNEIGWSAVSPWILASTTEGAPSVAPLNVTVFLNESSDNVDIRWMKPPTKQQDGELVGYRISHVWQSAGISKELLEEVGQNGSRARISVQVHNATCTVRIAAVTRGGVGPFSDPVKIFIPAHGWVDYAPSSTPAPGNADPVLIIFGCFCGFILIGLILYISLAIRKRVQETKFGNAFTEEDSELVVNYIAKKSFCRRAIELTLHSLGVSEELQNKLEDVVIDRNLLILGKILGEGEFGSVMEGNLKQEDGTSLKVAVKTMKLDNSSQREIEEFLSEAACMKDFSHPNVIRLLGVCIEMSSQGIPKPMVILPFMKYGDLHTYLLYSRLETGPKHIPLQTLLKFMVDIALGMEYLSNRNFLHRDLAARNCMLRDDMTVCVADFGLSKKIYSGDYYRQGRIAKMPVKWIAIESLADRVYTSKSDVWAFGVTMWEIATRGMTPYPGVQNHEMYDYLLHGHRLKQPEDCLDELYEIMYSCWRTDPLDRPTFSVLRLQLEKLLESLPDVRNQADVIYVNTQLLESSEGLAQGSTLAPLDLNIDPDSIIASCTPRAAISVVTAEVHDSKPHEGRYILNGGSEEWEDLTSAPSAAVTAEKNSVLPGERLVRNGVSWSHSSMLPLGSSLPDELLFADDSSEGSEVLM

c-Abl (mouse) = assay: as above
c-Src = assay: as above
Grb2 SH2 = Grb2 SH2 (UniProt P62993); assay: SH2 binding enrichment of the phosphorylated peptide, bacterial display (enrichment ratio); higher = better substrate or ligand; peptides without Tyr show the background
Sequence of Grb2 SH2 (P62993 whole entry, looked up): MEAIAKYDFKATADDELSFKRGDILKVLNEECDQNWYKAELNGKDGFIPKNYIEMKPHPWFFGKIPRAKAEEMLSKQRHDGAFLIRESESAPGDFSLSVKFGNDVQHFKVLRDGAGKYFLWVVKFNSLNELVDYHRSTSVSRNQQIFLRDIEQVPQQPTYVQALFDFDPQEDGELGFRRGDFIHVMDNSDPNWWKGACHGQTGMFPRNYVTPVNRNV

SHP2-C SH2 = assay: as above
c-Src SH2 = assay: as above
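Throughout, for SH2 binding enrichment of the phosphorylated peptide, bacterial display: peptide library displayed on the E. coli surface as eCPX fusions, selected cells deep-sequenced, score is each peptide's frequency after selection divided by its frequency in the input.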
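Throughout, for phosphorylation enrichment, bacterial display: 11-residue human phosphosite peptides and single-mutation variants displayed on the E. coli surface, counted by deep sequencing, each peptide's frequency after selection divided by its frequency in the unselected input library; frequency after pTyr selection over input frequency; kinase dosed for 20-30% of maximal phosphorylation in three min.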

Sequence of Fyn (P06241 whole entry, looked up): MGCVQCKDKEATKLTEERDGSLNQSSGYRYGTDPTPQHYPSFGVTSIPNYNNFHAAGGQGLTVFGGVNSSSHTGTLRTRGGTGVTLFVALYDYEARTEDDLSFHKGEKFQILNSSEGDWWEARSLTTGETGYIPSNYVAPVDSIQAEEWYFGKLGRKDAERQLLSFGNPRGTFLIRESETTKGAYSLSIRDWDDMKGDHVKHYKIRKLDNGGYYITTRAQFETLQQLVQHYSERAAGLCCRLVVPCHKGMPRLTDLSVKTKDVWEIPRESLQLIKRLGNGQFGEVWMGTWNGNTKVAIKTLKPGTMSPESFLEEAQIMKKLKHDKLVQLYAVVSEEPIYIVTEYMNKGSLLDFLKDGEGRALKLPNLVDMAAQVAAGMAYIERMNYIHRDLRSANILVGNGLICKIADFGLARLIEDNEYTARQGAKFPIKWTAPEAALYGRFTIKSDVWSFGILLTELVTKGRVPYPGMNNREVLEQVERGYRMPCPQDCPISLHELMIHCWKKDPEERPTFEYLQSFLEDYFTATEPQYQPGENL
Sequence of EPHB1 (P54762 whole entry, looked up): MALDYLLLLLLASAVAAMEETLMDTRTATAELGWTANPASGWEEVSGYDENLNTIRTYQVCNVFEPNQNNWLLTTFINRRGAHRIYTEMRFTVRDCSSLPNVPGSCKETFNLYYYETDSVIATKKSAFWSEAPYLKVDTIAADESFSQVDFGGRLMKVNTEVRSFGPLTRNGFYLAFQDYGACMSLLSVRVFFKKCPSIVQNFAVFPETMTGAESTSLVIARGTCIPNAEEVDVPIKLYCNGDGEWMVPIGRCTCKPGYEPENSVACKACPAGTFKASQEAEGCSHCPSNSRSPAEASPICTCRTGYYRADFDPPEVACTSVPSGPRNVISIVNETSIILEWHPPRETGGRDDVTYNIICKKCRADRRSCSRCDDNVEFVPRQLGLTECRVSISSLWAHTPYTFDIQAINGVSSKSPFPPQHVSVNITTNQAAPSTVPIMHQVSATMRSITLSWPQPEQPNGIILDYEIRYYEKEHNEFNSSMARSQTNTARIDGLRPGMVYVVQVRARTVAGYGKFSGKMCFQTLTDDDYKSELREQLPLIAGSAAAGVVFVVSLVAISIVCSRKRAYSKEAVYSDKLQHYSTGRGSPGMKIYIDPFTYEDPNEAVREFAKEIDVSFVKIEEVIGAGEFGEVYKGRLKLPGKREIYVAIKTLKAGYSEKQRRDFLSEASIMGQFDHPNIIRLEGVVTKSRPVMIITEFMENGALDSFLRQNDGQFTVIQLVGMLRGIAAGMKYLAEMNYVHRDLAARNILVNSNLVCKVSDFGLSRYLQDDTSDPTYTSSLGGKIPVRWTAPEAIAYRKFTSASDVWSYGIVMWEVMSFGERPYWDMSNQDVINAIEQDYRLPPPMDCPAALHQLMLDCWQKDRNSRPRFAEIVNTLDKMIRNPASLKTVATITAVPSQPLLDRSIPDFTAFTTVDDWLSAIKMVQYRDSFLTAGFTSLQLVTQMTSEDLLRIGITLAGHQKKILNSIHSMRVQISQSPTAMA
Sequence of FGFR1 (P11362 whole entry, looked up): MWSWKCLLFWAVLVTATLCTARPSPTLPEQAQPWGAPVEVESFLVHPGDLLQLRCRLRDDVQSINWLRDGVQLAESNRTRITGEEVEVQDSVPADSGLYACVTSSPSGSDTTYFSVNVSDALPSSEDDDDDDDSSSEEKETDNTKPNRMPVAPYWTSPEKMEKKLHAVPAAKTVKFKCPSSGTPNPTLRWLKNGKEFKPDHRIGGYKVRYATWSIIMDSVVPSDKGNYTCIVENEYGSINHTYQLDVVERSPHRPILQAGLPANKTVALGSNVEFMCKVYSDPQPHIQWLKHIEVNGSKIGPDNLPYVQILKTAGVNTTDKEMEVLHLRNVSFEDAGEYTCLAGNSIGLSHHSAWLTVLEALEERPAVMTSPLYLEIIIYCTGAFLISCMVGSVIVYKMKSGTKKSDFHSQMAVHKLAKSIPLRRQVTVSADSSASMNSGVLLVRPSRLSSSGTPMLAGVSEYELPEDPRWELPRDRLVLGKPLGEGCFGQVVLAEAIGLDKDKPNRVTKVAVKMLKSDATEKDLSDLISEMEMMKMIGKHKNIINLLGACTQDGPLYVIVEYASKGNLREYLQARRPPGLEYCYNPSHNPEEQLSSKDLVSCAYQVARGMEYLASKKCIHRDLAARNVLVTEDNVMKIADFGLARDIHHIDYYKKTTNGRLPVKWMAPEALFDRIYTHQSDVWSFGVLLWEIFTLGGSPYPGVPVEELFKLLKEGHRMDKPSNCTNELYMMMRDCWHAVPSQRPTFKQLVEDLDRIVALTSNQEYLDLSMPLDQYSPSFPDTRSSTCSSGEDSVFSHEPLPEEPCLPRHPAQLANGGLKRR

Row | Sequence | phosphorylation enrichment (AncSZ) | phosphorylation enrichment (EPHB1) | phosphorylation enrichment (EPHB2) | phosphorylation enrichment (FGFR1) | phosphorylation enrichment (FGFR3) | phosphorylation enrichment (Fer (mouse)) | phosphorylation enrichment (Fes) | phosphorylation enrichment (Fyn) | phosphorylation enrichment (Hck) | phosphorylation enrichment (Jak2) | phosphorylation enrichment (MERTK) | phosphorylation enrichment (c-Abl (mouse)) | phosphorylation enrichment (c-Src) | SH2 binding enrichment (Grb2 SH2) | SH2 binding enrichment (SHP2-C SH2) | SH2 binding enrichment (c-Src SH2)
1 | GPGGDYAAMGA [ERBB3_Y1276] | 0.6 | 1.3 | 0.903 | 0.776 | 0.605 | 0.488 | 0.766 | 0.414 | 0.527 | 0.604 | 0.511 | 0.572 | 0.494 | 0.771 | 0.863 | 1.09
2 | GPQGVYSNKLV [PTPN14_Y506] | 0.568 | 0.417 | 0.502 | 0.472 | 0.51 | 0.407 | 0.642 | 0.633 | 0.588 | 0.544 | 0.519 | 0.537 | 0.636 | 0.654 | 0.724 | 0.536
3 | GQDLLYEDEDL [PACS1_Y303_F302L] | 1.6 | 0.812 | 0.733 | 0.559 | 0.889 | 2.38 | 1.43 | 0.674 | 0.626 | 1.18 | 0.595 | 0.855 | 0.613 | 0.8 | 0.632 | 0.505
4 | GREFIYVDPMQ [PDGFRA_Y574_H570R_YF] | 1.03 | 3.28 | 5.79 | 7.2 | 4.31 | 0.589 | 0.729 | 0.906 | 1.2 | 0.703 | 2 | 3.31 | 1.36 | 1.08 | 0.596 | 0.524
5 | GRQGIYTKNER [GPR143_Y231_E233K] | 0.422 | 0.357 | 0.329 | 0.447 | 0.371 | 0.556 | 0.466 | 0.386 | 0.327 | 0.46 | 0.359 | 0.422 | 0.327 | 1.01 | 0.802 | 0.493
6 | GSRGKYSSGFR [ATM_Y332] | 0.512 | 0.318 | 0.36 | 0.657 | 0.453 | 0.793 | 0.603 | 0.38 | 0.338 | 0.62 | 0.559 | 0.547 | 0.649 | 1.15 | 0.912 | 0.833
7 | GTHCHYKAPIV [FZD9_Y569_T573I] | 1.32 | 0.513 | 0.532 | 0.531 | 0.636 | 0.58 | 0.858 | 0.428 | 0.544 | 0.658 | 0.4 | 3.44 | 0.395 | 0.995 | 0.953 | 0.953
8 | GTQCSYLLSRK [UGT3A1_Y123] | 0.634 | 0.427 | 0.554 | 0.482 | 0.441 | 0.43 | 0.676 | 0.329 | 0.392 | 0.655 | 0.436 | 0.569 | 0.42 | 1.03 | 0.833 | 0.704
9 | GVASDYKCVDP [VPS13B_Y1991_I1994V] | 1.05 | 0.624 | 0.62 | 0.533 | 0.821 | 0.548 | 1.16 | 0.504 | 0.537 | 0.964 | 0.476 | 0.791 | 0.458 | 0.845 | 0.631 | 0.622
10 | GVVVPYEPPEV [TP53_Y220_S215G] | 0.892 | 0.493 | 0.559 | 0.39 | 0.581 | 0.563 | 0.905 | 0.366 | 0.41 | 1.25 | 0.387 | 0.695 | 0.352 | 0.614 | 0.636 | 0.575
11 | HDRNTYEKFLE [TF_Y666_G671E_YF] | 1.07 | 0.525 | 0.64 | 0.432 | 0.522 | 0.56 | 1.03 | 0.741 | 0.491 | 0.859 | 0.848 | 0.561 | 0.818 | 0.972 | 0.639 | 3.06
12 | HEGKIYEYNQV [ZNF665_Y162] | 1.98 | 1.06 | 0.987 | 0.746 | 0.81 | 18.4 | 1.56 | 3.02 | 2.04 | 1.39 | 6.51 | 5.38 | 4.23 | 1.18 | 0.672 | 2.25
13 | HFGCVYFGTLL [MET_Y1093_H1094Y_YF] | 1.77 | 0.917 | 0.699 | 1.01 | 1.51 | 0.458 | 1.23 | 0.899 | 0.763 | 1.18 | 0.528 | 0.695 | 3.7 | 0.857 | 0.714 | 0.535
14 | HFVDEYDLTIE [KRAS_Y32_P34L] | 2.56 | 0.711 | 0.423 | 0.752 | 1.14 | 0.841 | 2.16 | 0.811 | 0.749 | 2.13 | 0.812 | 1.4 | 0.922 | 0.874 | 0.847 | 0.633
15 | HGEAFYSEVKP [PAK5_Y182_YF] | 1 | 2.01 | 1.37 | 3.57 | 2.49 | 12.3 | 1.04 | 2.95 | 4.38 | 0.609 | 9.01 | 1.02 | 2.27 | 0.887 | 0.868 | 1.22
16 | HICTAYELVLA [DHCR24_Y190] | 1.8 | 0.891 | 1.02 | 3.12 | 2.2 | 8.27 | 1.74 | 0.598 | 0.779 | 1.6 | 1.56 | 1.13 | 2.77 | 1.01 | 0.708 | 0.573
17 | HNELFYEAAEH [VANGL1_Y345_E347A_YF] | 1.85 | 0.586 | 0.842 | 0.826 | 0.884 | 9.73 | 1.55 | 1.05 | 1.51 | 0.944 | 1.46 | 1.47 | 1.89 | 0.901 | 0.531 | 0.749

Row | Sequence | phosphorylation enrichment (AncSZ) | phosphorylation enrichment (EPHB1) | phosphorylation enrichment (EPHB2) | phosphorylation enrichment (FGFR1) | phosphorylation enrichment (FGFR3) | phosphorylation enrichment (Fer (mouse)) | phosphorylation enrichment (Fes) | phosphorylation enrichment (Fyn) | phosphorylation enrichment (Hck) | phosphorylation enrichment (Jak2) | phosphorylation enrichment (MERTK) | phosphorylation enrichment (c-Abl (mouse)) | phosphorylation enrichment (c-Src) | SH2 binding enrichment (Grb2 SH2) | SH2 binding enrichment (SHP2-C SH2) | SH2 binding enrichment (c-Src SH2)
18 | HNELFYEEAEH [VANGL1_Y345_YF] | 1.89 | 0.819 | 0.932 | 0.809 | 0.964 | 4.23 | 1.35 | 0.942 | 0.974 | 0.981 | 0.525 | 0.727 | 0.484 | 0.599 | 0.733 | 0.645
19 | HQNGMYGLHQD [SGSH_Y89] | 0.643 | 0.346 | 0.591 | 0.673 | 0.516 | 0.656 | 0.886 | 0.568 | 0.564 | 0.726 | 0.678 | 0.726 | 0.647 | 0.97 | 0.962 | 0.603
20 | HRGHLYLAIEY [TEK_Y899_Y897H] | 1.51 | 1.08 | 1.16 | 0.942 | 1.23 | 0.741 | 1.56 | 0.447 | 0.572 | 0.977 | 0.495 | 0.599 | 0.344 | 1.36 | 0.654 | 0.341
21 | HSLRDYKEALM [ADA2_Y337_H335R] | 0.746 | 0.775 | 0.45 | 0.601 | 0.881 | 0.44 | 1.4 | 0.388 | 0.679 | 1.03 | 0.649 | 0.751 | 0.56 | 0.933 | 0.699 | 0.467
22 | HYGNNYTDVLQ [MACC1_Y803_R804T] | 1.59 | 5.63 | 1.45 | 1.14 | 1.05 | 2.53 | 1.76 | 0.635 | 1.12 | 1.35 | 0.935 | 2.17 | 0.816 | 0.812 | 3.32 | 2.72
23 | HYPDVYAREQL [ALX3_Y181] | 0.481 | 0.518 | 0.513 | 0.651 | 0.58 | 0.36 | 0.912 | 0.906 | 1.14 | 0.892 | 0.494 | 0.511 | 0.709 | 0.802 | 0.471 | 0.564
24 | IAKNPYDPPGR | 0.56 | 0.363 | 0.333 | 0.405 | 0.48 | 0.37 | 0.689 | 0.344 | 0.316 | 0.635 | 0.426 | 0.455 | 0.38 | 0.765 | 0.482 | 0.543
25 | IALNSCHSRNC [IFNGR1_Y397_Y397C] | 0.48 | 0.337 | 0.351 | 0.486 | 0.371 | 0.379 | 0.506 | 0.359 | 0.358 | 0.375 | 0.406 | 0.36 | 0.401 | 1 | 0.645 | 0.628
26 | IALSKYGRVKW [FGF6_Y186_R191W] | 0.603 | 0.316 | 0.329 | 0.387 | 0.357 | 0.413 | 0.985 | 0.306 | 0.438 | 0.56 | 0.365 | 0.748 | 0.437 | 1.26 | 1.89 | 1.33
27 | ICRWVYPLTPE [EIF2B5_Y319_R315C] | 1.29 | 0.5 | 0.542 | 0.516 | 0.733 | 0.405 | 1.36 | 0.528 | 0.585 | 1.14 | 0.505 | 0.739 | 0.578 | 0.883 | 0.795 | 0.538
28 | IDDNEYAYLKA [HNF4A_Y286] | 1.24 | 0.507 | 0.601 | 1 | 0.868 | 0.507 | 0.991 | 0.564 | 0.707 | 0.849 | 0.423 | 0.571 | 0.677 | 0.863 | 0.545 | 0.467
29 | IDDNQYAFLKA [HNF4A_Y286_E285Q_YF] | 0.823 | 0.494 | 0.487 | 2.5 | 1.61 | 0.852 | 0.839 | 0.604 | 1.64 | 0.709 | 0.84 | 1.02 | 0.553 | 0.677 | 0.631 | 0.803
30 | IDGLEYLHSPG [STK11_Y166_Q170P] | 0.931 | 0.377 | 0.584 | 0.467 | 0.543 | 0.426 | 0.69 | 0.44 | 0.454 | 0.746 | 0.431 | 0.5 | 0.37 | 0.819 | 0.558 | 0.491
31 | IEKLPYIDKWF [CPS1_Y872_T871P] | 0.953 | 0.472 | 0.482 | 0.51 | 0.567 | 0.333 | 1.01 | 0.368 | 0.456 | 0.833 | 0.359 | 0.574 | 0.479 | 0.782 | 0.679 | 0.642
32 | IFCIQYNICAF [MYH4_Y820_R823C] | 1.28 | 0.686 | 0.9 | 0.451 | 0.807 | 0.538 | 1.53 | 0.421 | 0.45 | 1.56 | 0.421 | 1.14 | 0.513 | 1.7 | 1.47 | 1.21
33 | IFCIQYNIRAF [MYH4_Y820] | 1.57 | 0.821 | 0.678 | 0.525 | 1.08 | 0.596 | 1.76 | 0.445 | 0.608 | 1.57 | 0.436 | 1.35 | 0.599 | 1.08 | 1.07 | 0.685

Reference: the supplement of paper PMC10065799, “High-throughput profiling of sequence recognition by tyrosine kinases and SH2 domains using bacterial peptide display” (eLife, 2023)
